Test results reported in patent US20250288652A1, “BACTERIOPHAGE LYSINE, CHIMERA THEREOF AND APPLICATION THEREOF” (priority 2021, published 2025).
Where “and” joins values, the source holds several entries; their conditions need not be identical. Identical values can stand only once.

How the values were obtained:
Propionibacterium acnes [1] = assay: MIC of selected lysin after single-step purification, Example 8; type: cell-based; settings: single-step purified lysin
Method: Express PACL 10, 390, 391, 392, 403 and 404 according to the method of Examples 1-4, and perform the following single-step purification: put Escherichia coli BL21 (DE3) containing each recombinant expression plasmid in the self-induction medium incubate at 37° C., 300 rpm for 3 hours, then at 18° C., 300 rpm for 16-18 hours. Cells were collected by centrifugation and lysed by homogenizatoin under high pressure. Clarified lysate from 1 L of E. coli culture medium expressing the protein of interest was loaded onto a 26 mm/200 mm column containing 70 mL of purification resin. The lysin was purified according to the conditions in Table 8-1, and the purity determination of the lyase after single-step purification is shown in FIG. 5. These lysin are used to determine the minimal inhibitory concentration (MIC).
The minimal inhibitory concentration (MIC) determination method is as follows. Propionibacterium acnes is streaked on Fortified Clostridium Agar (Fortified Clostridium Medium RCM with 1.5% agar, RCM was prepared according to the revised recipe, per liter—10 g acid hydrolyzed casein, 10 g beef extract, 3 g yeast extract, 5 g D—glucose, 5 g sodium chloride, 3 g sodium acetate, 0.5 g L-cysteine hydrochloride). Plates were incubated anaerobically at 37° C. for 72 hours. The inoculum for MIC determination was first prepared by resuspending single clones from RCA in 0.9% saline to an OD600 of 0.05, corresponding to 10^7 colony-forming units per milliliter (cfu/mL). The suspension was diluted 20-fold in RCM to an inoculum of 5*10^5 cfu/mL. Two-fold serial dilutions of each lyase were prepared in 0.9% saline and added not to exceed one-tenth of the total culture volume. Cultures were grown anaerobically at 37° C. for 48-72 hours. The MIC is the lowest concentration of lyase at which no growth of P. acnes can be observed with the naked eye.

[2] = tested on: biofilm-associated P. acnes strain 10; assay: Killing of biofilm-associated P. acnes (CFU count); type: cell-based, Propionibacterium acnes; settings: strain 10 biofilm, treated overnight at 25° C. under anaerobic conditions
Method: Strain 10 with an OD600 of 1.0 was added to a 96-well polystyrene plate to inoculate the biofilm overnight in an anaerobic gas mixture. The supernatant was removed and the wells were gently rinsed with 0.9% NaCl. Biofilm formation medium (RCM+5% glucose) was added to allow biofilm growth overnight in the anaerobic gas mixture. The medium was removed and the wells were gently rinsed with 0.9% NaCl. Biofilms were then treated with buffer or PACL403 overnight at 25° C. under anaerobic conditions. The buffer or PACL403 was removed and the wells were rinsed with 0.9% NaCl. Resuspend in 0.9% NaCl, plate on RCM agar and count biofilm-associated CFU.

Propionibacterium acnes [3] = assay: Minimum inhibitory concentration (MIC) determination, Example 6; type: cell-based; settings: listed as #10
Method: (§1) The minimal inhibitory concentration (MIC) determination method is as follows. First prepare a colony suspension in 0.9% saline to an OD600 of 0.05 to prepare an inoculum, which corresponds to 10^7 colony-forming units per mL (cfu/mL). The suspension was diluted 20 times in agar-free enhanced Clostridium medium (RCM) to an inoculum of 5*10^5 cfu/mL. Prepare 2-fold serial dilutions of PACL10 or vancomycin with 0.9% saline and add no more than one-tenth of the total culture. Cultures were grown anaerobically at 37° C. for 3 days. The MIC is the lowest concentration of PACL10 or vancomycin at which no growth of P. acnes can be observed with the naked eye. The minimum bactericidal concentration (MBC) was determined by subculturing the above cultures on enhanced Clostridium agar (RCA) plates containing 0.1% Tween-80. MBC is the lowest concentration of PACL10 or vancomycin at which no P. acnes colonies are seen on the enhanced Clostridium agar (RCA) plate.

Propionibacterium acnes [4] = assay: Minimum bactericidal concentration (MBC) determination, Example 6; type: cell-based; settings: listed as #10
Method: as §1

P. acnes 34A strain = assay: Time sterilization (time killing) test; type: cell-based, Propionibacterium acnes; settings: 50 mM sodium phosphate pH 6.0
Method: The time sterilization test method is as follows. Resuspend the P. acnes 34A strain colony in 0.9% saline to an OD600 of 0.05, which corresponds to 10^7 cfu/mL. The suspension was diluted 10-fold in 50 mM sodium phosphate (pH 6.0) to ˜10^6 cfu/mL. Add 0, 0.5×, 1×, 2× MIC of two-fold serial dilutions of PACL10 to the 34A strain, respectively. Ten-fold serial dilutions (0, 1, 2, 3 log) from the assay were plated on enhanced Clostridium agar (RCA) at each time point and incubated anaerobically at 37° C. for 3 days.

B1: PACL403: chimeric lysin, amino acid sequence SEQ ID NO: 271 (protein)
chain: MTFIQAKHHGGHNNPPVTRLVIHATCPDVGYPSASRAGRAVSTAHYFQETTRPASAHYICDISTTVQCLSEETVGYHAPPNSHSIGIEICADGGSHASFSNPAHAYTREQWLSPQVWPAVERAAMLARGICQRHNIPIRRLSIADVKAGKRGICGHNEVSEAFHQSDHDDPGPYFPWDGFIALVNGHSAPSRQEELTVSDGGEVRTPGQQDTKPSVPTPSLTEIGDQDMNGCYYNLNSKTRTYLIFDSRSGFYHEFSQGNGNGPMSPDYVNPIAKGWDTGSWPAISPGHAKVLKAALDKVRKGI
modifications: PACL403
For B1, the “MIC of selected lyases relative to Propionibacterium acnes” value (Propionibacterium acnes [1]; clade IA1, strain 1) was 16 µg/mL, the “MIC of selected lyases relative to Propionibacterium acnes” value (Propionibacterium acnes [1]; clade IA1, strain 5) was 16 µg/mL and the “MIC of selected lyases relative to Propionibacterium acnes” value (Propionibacterium acnes [1]; clade IA1, strain 7) was 16 µg/mL. The “MIC of selected lyases relative to Propionibacterium acnes” value (Propionibacterium acnes [1]; clade IA2, strain 10) was 8 µg/mL, the “MIC of selected lyases relative to Propionibacterium acnes” value (Propionibacterium acnes [1]; clade IA2, strain 17) was 8 µg/mL and the “MIC of selected lyases relative to Propionibacterium acnes” value (Propionibacterium acnes [1]; clade IA2, strain 33) was 8 µg/mL. For the same molecule, the “MIC of selected lyases relative to Propionibacterium acnes” value (Propionibacterium acnes [1]; clade II, strain 34) was 16 µg/mL and the “bactericidal activity against biofilm-associated P. acnes” value [2] was “killed biofilm-associated P. acnes”.

B2: PACL10: phage lysin, amino acid sequence SEQ ID NO: 10; 29.4 kDa (protein)
chain: MTFIQAAHHSSGSNLPPTRVVIHATCPELGFPRASAKGRAVSTARYFQSAISGGSAHYVVDVGETVQCLAEDVIAWHAPPNSRSLGIEICADGGSATSFKNPNVRYSRAQWLSPQVWPAVLRAAALTRQMCQKYGIPVTKLSASDLKAGKKGICGHVDVSNAWHQSDHDDPGPDFPWAEFMAAVKGGATNPDELELTVSQFSDLTKRLQGMQEQTHHDLGVVQTKLATMDTVKNPRTGAKWSLKDAIWSIWYYVLENRDRIAALEKKVK
modifications: PACL10
notes: 29.4 kDa
With B2 the MIC (Propionibacterium acnes [3]; clade IA1, strain 1) was 6.4 μg/mL and 0.218 μM, the MIC (Propionibacterium acnes [3]; clade IA1, strain 5) was 12.8 μg/mL and 0.436 μM and the MIC (Propionibacterium acnes [3]; clade IA1, strain 7) was 6.4 μg/mL and 0.218 μM. The MIC (Propionibacterium acnes [3]; clade IA1, strain 15) was 6.4 μg/mL and 0.218 μM, the MIC (Propionibacterium acnes [3]; clade IA1, strain 27) was 12.8 μg/mL and 0.436 μM and the MIC (Propionibacterium acnes [3]; clade IA2, strain 10) was 6.4 μg/mL and 0.218 μM. The MIC (Propionibacterium acnes [3]; clade IA2, strain 14) was 6.4 μg/mL and 0.218 μM, the MIC (Propionibacterium acnes [3]; clade IA2, strain 17) was 6.4 μg/mL and 0.218 μM and the MIC (Propionibacterium acnes [3]; clade IA2, strain 31) was 12.8 μg/mL and 0.436 μM. The MIC (Propionibacterium acnes [3]; clade IA2, strain 33A) was 12.8 μg/mL and 0.436 μM, the MIC (Propionibacterium acnes [3]; clade IB, strain 13) was 12.8 μg/mL and 0.436 μM and the MIC (Propionibacterium acnes [3]; clade II, strain 34A) was 6.4 μg/mL and 0.218 μM. The MBC (Propionibacterium acnes [4]; clade IA1, strain 1) was 25.6 μg/mL and 0.871 μM, the MBC (Propionibacterium acnes [4]; clade IA1, strain 5) was 12.8 μg/mL and 0.436 μM and the MBC (Propionibacterium acnes [4]; clade IA1, strain 7) was 12.8 μg/mL and 0.436 μM. For the same molecule, the MBC (Propionibacterium acnes [4]; clade IA1, strain 15) was 25.6 μg/mL and 0.871 μM, the MBC (Propionibacterium acnes [4]; clade IA1, strain 27) was >25.6 μg/mL and >0.871 μM and the MBC (Propionibacterium acnes [4]; clade IA2, strain 10) was 12.8 μg/mL and 0.436 μM. For the same molecule, the MBC (Propionibacterium acnes [4]; clade IA2, strain 14) was >25.6 μg/mL and >0.871 μM, the MBC (Propionibacterium acnes [4]; clade IA2, strain 17) was 25.6 μg/mL and 0.871 μM and the MBC (Propionibacterium acnes [4]; clade IA2, strain 31) was >25.6 μg/mL and >0.871 μM. The MBC (Propionibacterium acnes [4]; clade IA2, strain 33A) was >25.6 μg/mL and >0.871 μM, the MBC (Propionibacterium acnes [4]; clade IB, strain 13) was 25.6 μg/mL and 0.871 μM and the MBC (Propionibacterium acnes [4]; clade II, strain 34A) was 6.4 μg/mL and 0.218 μM. For the same molecule, the “MIC of selected lyases relative to Propionibacterium acnes” value (Propionibacterium acnes [1]; clade IA1, strain 1) was 8 µg/mL, the “MIC of selected lyases relative to Propionibacterium acnes” value (Propionibacterium acnes [1]; clade IA1, strain 5) was 8 µg/mL and the “MIC of selected lyases relative to Propionibacterium acnes” value (Propionibacterium acnes [1]; clade IA1, strain 7) was 8 µg/mL. For the same molecule, the “MIC of selected lyases relative to Propionibacterium acnes” value (Propionibacterium acnes [1]; clade IA2, strain 10) was 8 µg/mL, the “MIC of selected lyases relative to Propionibacterium acnes” value (Propionibacterium acnes [1]; clade IA2, strain 17) was 8 µg/mL and the “MIC of selected lyases relative to Propionibacterium acnes” value (Propionibacterium acnes [1]; clade IA2, strain 33) was 8 µg/mL. The “MIC of selected lyases relative to Propionibacterium acnes” value (Propionibacterium acnes [1]; clade II, strain 34) was 8 µg/mL, the “time for cfu/mL to drop below the detection limit” value (P. acnes 34A strain; at 2× MIC 12.8 μg/mL) was no more than 2 h and the “time for cfu/mL to drop below the detection limit” value (P. acnes 34A strain; at MIC 6.4 μg/mL) was no more than 3 h.
